Where “and” joins values, the source holds several entries; their conditions need not be identical. Equal values may be shown once. Read-outs that look alike come from different tables or passages of the source.
How the values were obtained:
[1] = target: T1, Human TNFa N-his trimers (His-tagged TNF, produced at ESBATech) (human, UniProt P01375 77-233); assay: SPR (BIAcore T100), His-tagged human TNF captured on NTA chip, scFv as analyte
T1 construct: Captured as trimers on a Ni-NTA sensor chip by the N-terminal His tags in the Biacore assay of the general methods; also called human TNFα; human TNF alpha; not shown: N-terminal His tag
Description: (§1) For binding affinity measurements at pH5 and pH 7.4 (data not shown), surface Plasmon resonance measurements with BIAcore™-T 100 were employed using a NTA sensor chip and His-tagged TNF (produced at ESBATech). The surface of the NTA sensor chip consists of a carboxymethylated dextran matrix pre-immobilized with nitrilotriacetic acid (NTA) for capture of histidine tagged molecules via Ni2+NTA chelation. Human TNFa N-his trimers (5 nM) are captured by the nickel via their N-terminal his-tags and ESBA105 (analyte) is injected at several concentrations ranging from 30 nM to 0.014 nM in 3 fold serial dilution steps. At the regeneration step, the complex formed by nickel, ligand and analyte is washed away. This allows the use of the same regeneration conditions for different samples. The response signal is generated by surface Plasmon resonance (SPR) technology and measured in resonance units (RU). All the measurements are performed at 25° C. Sensorgrams were generated for each anti-TNF scFv sample after in-line reference cell correction followed by buffer sample subtraction. The apparent dissociation rate constant (kd), the apparent association rate constant (kₐ) and the apparent dissociation equilibrium constant (KD) were calculated using one-to-one Langmuir binding model with BIAcore T100 evaluation Software version 1.1.

[2] = target: T2, recombinant human TNFalpha (human, UniProt P01375 77-233); assay: cell-based or functional assay
[3] = target: T2, recombinant human TNFalpha; assay: cell-based or functional assay; remark: listed apart in the source
[4] = target: T1, Human TNFa N-his trimers (His-tagged …); assay: SPR (BIAcore), His-tagged human TNF captured on NTA chip, scFv as analyte; units taken from paragraph 184
Description: as §1

[5] = target: T2, recombinant human TNFalpha; assay: cell-based or functional assay; remark: listed apart in the source

T1 sequence (P01375 77-233 limits assumed): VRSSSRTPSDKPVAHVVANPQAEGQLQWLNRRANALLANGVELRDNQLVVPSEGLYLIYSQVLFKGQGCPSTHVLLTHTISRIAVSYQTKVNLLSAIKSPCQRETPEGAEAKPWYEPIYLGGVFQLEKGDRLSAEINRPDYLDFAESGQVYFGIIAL
T2 sequence (P01375 77-233 limits assumed): as above

Binder | Kd [1] [nM] | koff [1] [s⁻¹] | kon [1] [M⁻¹ s⁻¹] | L929* [EC50-E105/EC50-X], potency relative to ESBA105 [2] | also measured
EP6_min (scFv, scFv NH2-VL-(GGGGS)4-VH-COOH; also called 673) scFv: EIVMTQSPSTLSASVGDRVIITCQASESIYSGLAWYQQKPGKAPKLLIYQASTLASGVPSRFSGSGSGAEFTLTISSLQPDDFATYYCQQGFGTSNVENPFGQGTKLTVLGGGGGSGGGGSGGGGSGGGGSEVQLVESGGGLVQPGGSLRLSCAASGFSLSRYGVSWVRQAPGKGLEWVSTIGEAGRAYYANWARSRFTISRDNSKNTLYLQMNSLRAEDTAVYYCAKGEVFNNGWGAFNIWGQGTLVTVSS | 106 | 0.00494 | 46700 |  | 
EP15_min (scFv, scFv NH2-VL-(GGGGS)4-VH-COOH; also called 1073) scFv: EIVMTQSPSTLSASVGDRVIITCQASENIYTSLAWYQQKPGKAPKLLIYSASTLASGVPSRFSGSGSGAEFTLTISSLQPDDFATYYCQQGFATSNVENPFGQGTKLTVLGGGGGSGGGGSGGGGSGGGGSEVQLVESGGGLVQPGGSLRLSCAASGFTFSRYGVSWVRQAPGKGLEWVSAIGETGRAYYANWAKSRFTISRDNSKNTLYLQMNSLRAEDTAVYYCAKGEEFNNGWGAFNIWGQGTLVTVSS | 262 | 0.041 | 157000 |  | 
EP6_max (scFv, scFv NH2-VL-(GGGGS)4-VH-COOH; also called 674) scFv: EIVMTQSPSTLSASVGDRVIITCQASESIYSGLAWYQQKPGKAPKLLIYQASTLASGVPSRFSGSGSGTDFTLAISSLQPDDFATYYCQQGFGTSNVENPFGQGTKLTVLGGGGGSGGGGSGGGGSGGGGSEVQLVESGGGLVQPGGSLRLSCTVSGFSLSRYGVSWVRQAPGKGLEWVGTIGEAGRAYYANWARSRSTISRDTSKNTVYLQMNSLRAEDTAVYYCARGEVFNNGWGAFNIWGQGTLVTVSS | 0.512 | 0.000145 | 284000 | 1.1 ratio EC50 ESBA105/EC50 X (mass units, ng/ml) | 
EP34_max (scFv, scFv NH2-VL-(GGGGS)4-VH-COOH; also called Epi34max; 791) scFv: EIVMTQSPSTLSASLGDRVIITCQSSQSVYGNIWMAWYQQKSGKAPKLLIYQASKLASGVPSRFSGSGSGAEFSLTISSLQPDDFATYYCQGNFNTGDRYAFGQGTKLTVLGGGGGSGGGGSGGGGSGGGGSEVQLVESGGGLVQPGGSLRLSCTASGFTISRSYWICWVRQAPGKGLEWVACIYGDNDITPLYANWAKGRFPVSTDTSKNTVYLQMNSLRAEDTAVYYCARLGYADYAYDLWGQGTLVTVSS | 0.0286 | 1.68e-05 | 586000 | 10.5 ratio EC50 ESBA105/EC50 X (mass units, ng/ml) | IC50, block of cytotoxic activity (human Kym-1 cells, 10 pg/ml TNF) [3]: 0.69 ng/mL and 0.63 ng/mL; IC50, block of cytotoxic activity (murine L929 cells, 1000 pg/ml TNF) [3]: 1.03 ng/mL and 1.04 ng/mL
EP19_max (scFv, also called 1007; EP19maxmod) scFv: EIVMTQSPSTLSASVGDRVIITCQASDNIYRGLAWYQQKPGKAPKLLIYDASTLQSGVPSRFSGSGSGTQFTLTISSLQPDDFATYYCLGVYGYSSDDGAAFGQGTKLTVLGGGGGSGGGGSGGGGSGGGGSEVQLVESGGGLVQPGGSLRLSCTVSGFSLNSNEISWVRQAPGKGLEWVGYIGNGGMTHYASWAKGRFTISRDTSKNTVYLQMNSLRAEDTAVYYCASSVEYTDLYYLNIWGQGTLVTVSS | 2.91 | 6.54e-05 | 22500 | 0.6 ratio EC50 ESBA105/EC50 X (mass units, ng/ml) | 
EP42_min (scFv, scFv NH2-VL-(GGGGS)4-VH-COOH; also called 1076) scFv: EIVMTQSPSTLSASVGDRVIITCQSTESVYKNNYLAWYQQKPGKAPKLLIYDASTLASGVPSRFSGSGSGAEFTLTISSLQPDDFATYYCAGYYRSGFGTANGSFGQGTKLTVLGGGGGSGGGGSGGGGSGGGGSEVQLVESGGGLVQPGGSLRLSCAASGFTFRNDAISWVRQAPGKGLEWVSYISDWGIKYYASWVKGRFTISRDNSKNTLYLQMNSLRAEDTAVYYCAKGAPGAGDNGIWGQGTLVTVSS | 58.7 | 0.00835 | 142000 |  | 
EP43_maxDHP (scFv) scFv: EIVMTQSPSTLSASVGDRVIIKCQASQSISDWLAWYQQKPGKAPKLLIYGASRLASGFPSRFSGSGSGAEFTLTISGLEPADFATYYCQQGWSDSYVDNLFGQGTKLTVLGGGGGSGGGGSGGGGSGGGGSEVQLVESGGGSVQPGGSLRLSCTVSGFSLSSGAMSWVRQAPGKGLEWVGVIISSGATYYASWAKGRFTISKDTSKNTVYLQMNSLRAEDTATYYCARGGPDDSNSMGTFDPWGQGTSVTVSS |  |  |  |  | Kd [4]: 0.116 nM; koff [4]: 2.73e-05 s⁻¹; kon [4]: 235000 M⁻¹ s⁻¹; L929* [EC50-E105/EC50-X], potency relative to ESBA105 [5]: 6.7 ratio EC50 ESBA105/EC50 X (mass units, ng/ml)
EP43_min (scFv, scFv NH2-VL-(GGGGS)4-VH-COOH; also called 705) scFv: EIVMTQSPSTLSASVGDRVIITCQASQSISDWLAWYQQKPGKAPKLLIYGASRLASGVPSRFSGSGSGAEFTLTISSLQPDDFATYYCQQGWSDSYVDNLFGQGTKLTVLGGGGGSGGGGSGGGGSGGGGSEVQLVESGGGLVQPGGSLRLSCAASGFSLSSGAMSWVRQAPGKGLEWVSVIISSGATYYASWAKGRFTISRDNSKNTLYLQMNSLRAEDTAVYYCAKGGPDDSNSMGTFDPWGQGTLVTVSS | 5540 | 0.0298 | 5380 |  | 
EP43_maxmin (scFv, also called 959) scFv: EIVMTQSPSTLSASVGDRVIIKCQASQSISDWLAWYQQKPGKAPKLLIYGASRLASGFPSRFSGSGSGAEFTLTISGLEPADFATYYCQQGWSDSYVDNLFGQGTKLTVLGGGGGSGGGGSGGGGSGGGGSEVQLVESGGGLVQPGGSLRLSCAASGFSLSSGAMSWVRQAPGKGLEWVSVIISSGATYYASWAKGRFTISRDNSKNTLYLQMNSLRAEDTAVYYCAKGGPDDSNSMGTFDPWGQGTLVTVSS |  |  |  |  | Kd [4]: 36.6 nM; koff [4]: 0.00533 s⁻¹; kon [4]: 146000 M⁻¹ s⁻¹
EP15_max (scFv, scFv NH2-VL-(GGGGS)4-VH-COOH; also called 1074) scFv: EIVMTQSPSTLSASVGDRVIITCQASENIYTSLAWYQQKPGKAPKLLIYSASTLASGVPSRFSGSGSGTEFTLTISSLQPDDFATYYCQQGFATSNVENPFGQGTKLTVLGGGGGSGGGGSGGGGSGGGGSEVQLVESGGGSVQPGGSLRLSCTVSGFSLSRYGVSWVRQAPGKGLEWVGAIGETGRAYYANWAKSRSTISRDTSKNTVYLQMNSLRAEDTATYYCARGEEFNNGWGAFNIWGQGTTVTVSS | 1.48 | 0.00226 | 1.53e+06 | 0.39 ratio EC50 ESBA105/EC50 X (mass units, ng/ml) | 
EP1_max (scFv, scFv NH2-VL-(GGGGS)4-VH-COOH; also called 1072) scFv: EIVMTQSPSTLSASVGDRVIITCQSTESVYKNNYLAWYQQKPGKAPKLLIYDASTLASGVPSRFSGSGSGTEFTLTISSLQPDDFATYYCAGYYRSGSGTANGSFGQGTKLTVLGGGGGSGGGGSGGGGSGGGGSEVQLVESGGGSVQPGGSLRLSCTVSGIDLSNDAISWVRQAPGKGLEWVAYISDWSIRYYANWAQGRFTISKDTSKNTVYLQMNSLRAEDTATYYCARGAPGAGDNGIWGQGTTVTVSS | 56.9 | 0.00063 | 11100 |  | 
EP42_max (scFv, scFv NH2-VL-(GGGGS)4-VH-COOH; also called 1077) scFv: EIVMTQSPSTLSASVGDRVIITCQSTESVYKNNYLAWYQQKPGKAPKLLIYDASTLASGVPSRFSGSGSGTEFTLTISSLQPDDFATYYCAGYYRSGFGTANGSFGQGTKLTVLGGGGGSGGGGSGGGGSGGGGSEVQLVESGGGSVQPGGSLRLSCTVSGIDLRNDAISWVRQAPGKGLEWVSYISDWGIKYYASWVKGRFTISKDTSKNTVYLQMNSLRAEDTATYYCARGAPGAGDNGIWGQGTTVTVSS | 3.46 | 0.000419 | 121000 |  | 
EP35_max (scFv, scFv NH2-VL-(GGGGS)4-VH-COOH; also called 1089) scFv: EIVMTQSPSTLSASVGDRVIITCQASQSISNLLAWYQQKPGKAPKLLIVAASKLASGVPSRFSGSGSGTEFTLTISSLQPDDFATYYCQQGWSHTNVDNTFGQGTKLTVLGGGGGSGGGGSGGGGSGGGGSEVQLVESGGGSVQPGGSLRLSCTASGFSFSVGYWICWVRQAPGKGLEWVACIDAGTSGGTYYATWAKGRFTISKDTSKNTVYLQMNSLRAEDTATYYCARGVSSNGYYFKLWGQGTTVTVSS | 0.194 | 0.00015 | 772000 | 5.2 ratio EC50 ESBA105/EC50 X (mass units, ng/ml) | 
ESBA105 (scFv) MADIVMTQSPSSLSASVGDRVTLTCTASQSVSNDVVWYQQRPGKAPKLLIYSAFNRYTGVPSRFSGRGYGTDFTLTISSLQPEDVAVYYCQQDYNSPRTFGQGTKLEVKRGGGGSGGGGSGGGGSSGGGSQVQLVQSGAEVKKPGASVKVSCTASGYTFTHYGMNWVRQAPGKGLEWMGWINTYTGEPTYADKFKDRFTFSLETSASTVYMELTSLTSDDTAVYYCARERGDAMDYWGQGTLVTVSS |  |  |  |  | EC50, L929 potency assay [3]: 6.5 ng/mL
